Laboratory results reported in patent US20260250737A1, “Engineered Luciferases and Luciferin Substrates” (Monod Bio, Inc., priority 2023, published 2026).
Positions count from the first letter of the chain named.

B1: 5292 (protein)
chain: MTPEEIIENVKNFYAALASGDLEKAKALFDPGVTITLWDGTTFTSVEEFRKWFEEQFKTSKDALREIKSIEVEGDVVRVLVRLTFVRDGEVQEVDLLQLFKFV
B2: 5120 (protein)
chain: MTPEEIRENVLRFYEALASGDLETAKALFDPGTTITLWDGTTFTSLEEFLAWFEEQFDTSKDAKREILSLEIEGDVVRVLVRLTYVKDGEEKVVDLLQLLKWV
B3: 5108 (protein)
chain: MTPEEIIENVKAFYAALASGDLEAAKALFDPGTTITLWDGTTFTSLEEFLEWFEKQFEASKDAKREIKSIEVEGNVVKVLVRLTYVKDGKEKVVDLLQLLKFV
B4: 5101 (protein)
chain: MSEEQIRQNLRRFYEALDSGDAITAASLFDPGVTITLWDGTTFTSVEEFREWFESQFSTSKDALREISSLEVRGDTVEVTVRLSFTRNGQKHTVDLLQLFKFVGGGGGGNRVVADRVYVNPTG
B5: 5105 (protein)
chain: MTPEEIIANVKKFYEALASGDLATAKSLFDPGTTITLWDGTTFTSLEEFLAWFEKQFKASKDAKREIVSIEVDGNVVKVLVRLTYTVDGKEKVVDLLQLLKFV
B6: 5114 (protein)
chain: B5 chain with K12N, E15A, A23E, T24A, S27A, I70M, D73E, K90E
B7: 5115 (protein)
chain: B3 chain with E8A, A12K, A24T, E51A, K68V, E73K, V76T, K92Q
B8: 5118 (protein)
chain: B5 chain with K12A, E15A, T24A, S27A, E47D, V68L, S69D, D73E, N75D, K78R
B9: 5110 (protein)
chain: B3 chain with A12K, A15E, A24T, A27S, K68L, V86T
B10: 5106 (protein)
chain: B5 chain with P3E, K11E, E15A, A23E, S27A, D73E, N75D, V76T
B11: 5102 (protein)
chain: MSEEQIRQNLRRFYEALDSGDAITAASLFDPGVTITLWDGTTFTSVEEFREWFESQFSTSKDALREISSLEVRGDTVEVTVRLSFTRNGQKHTVDLLQLFKFVGNRVVADRVYVNPTG
B12: 5123 (protein)
chain: MTPEKIRENVENFYAALASGDLEKAKALFDPGTTITLWDGTTFTSLEEFLAWFEKQFKASKDAKREIKSLEIEGDTVKVLVRLTYTVNGKEKTVDLLQLLKFV
B13: 5289 (protein)
chain: MTPEEIRANVERFYAALASGDLAAAKALFDPGVTITLWDGTTFTSVEEFRAWFEEQFQTSKDALREIVSMEIDGDTVRVLVRLTFVRDGEEQEVDLLQLFKFV
B14: 5293 (protein)
chain: B13 chain with E11R, A24T, K26E, E47A, E55K, Q58K, V68E, D73E, E90K, E93V
B15: 5291 (protein)
chain: B13 chain with A8E, E11R, A23E, A24T, D73E, T76V, E90K, Q92E, E93V
B16: 5295 (protein)
chain: B13 chain with E11R, R12A, Q58E, I72V, D73E, V86T, D88N, Q92K, E93V
B17: 5107 (protein)
chain: MTPEEIKANVEAFYAALASGDLEKAKALFDPGTTITLWDGTTFTSLEEFLAWFEKQFKASKDAKREIVSMKVEGDTVRVLVRLTYTKDGKEQVVDLLQLIKVV
B18: 5113 (protein)
chain: B17 chain with K7R, K24A, K58E, V68L, M70L, K71E, V72I, D75N, I100L, V102F
B19: 5109 (protein)
chain: B17 chain with K7R, E11K, K71E, V72I, E73N, K87V, K90E, Q92K, I100L, V102F
B20: 5112 (protein)
chain: B3 chain with I7R, E8A, K11R, E51A, E58K, K68V, I70L, N75D, K78R, K92E
B21: 5124 (protein)
chain: B17 chain with K7I, E11R, K24A, K58D, M70I, K71E, I100L, V102F
B22: 5122 (protein)
chain: B17 chain with K7F, E11K, E23A, K24A, E47D, V68L, K71E, T86V, Q92E, V102W
B23: 5117 (protein)
chain: B17 chain with P3D, K7R, E11R, K24T, A59T, M70L, K71E, Q92E, I100L, V102F
B24: 5111 (protein)
chain: MTPEEIRANVEAFYAALASGDLEAAKALFDPGTTITLWDGTTFTSLEEFLAWFEKQFETSKDAKREIVSLEIEGDTVRVLVRLTYTKNGEVKEVDLLQLLKFV
B25: 5119 (protein)
chain: B24 chain with E5Q, A12R, A24T, E58K, T59A, K87V, N88D
B26: 5121 (protein)
chain: MTPEEIKENVKKFYEALASGDLETAKSLFDPGTTITLWDGTTFTSLEEFLAWFEKQFDASKDAKREIVSMEIKGNEVKVLVRLTYTKDGKEQTVDLLQLLKFV
B27: 5290 (protein)
chain: MTPEEIIENVRRFYAALASGDLETAKSLFDPGVTITLWDGTTFTSVEEFRAWFEAQFQTSKDALREIVSIEVEGDVVRVLVRLTFTRDGQTQEVDLLQLFKFV
B28: 5294 (protein)
chain: MTPEEIRANVRAFYAALASGDLEAAKALFDPGVTITLWDGTTFTSVEEFRAWFEEQFQTSKDALREIESLEVEGDVVRVLVRLTFTRDGKVEEVDLLQLFKFV
B29: 5116 (protein)
chain: MTPEEIRANVERFYAALASGDLDTAKALFDPGTTITLWDGTTFTSLEEFLAWFEKQFKASKDAKREIVELEIEGNVVRVLVRLTYVKDGKEQVVDLLQLLKFV

System: SmLux
Assay: Computationally generated LgLux variants expressed in E. coli, tested in lysates with SmLux and substrate 1c
Assay type: biochemical
Settings: 20 uM SmLux, 50 uM substrate 1c
Experimental: LgLux sequences were designed computationally, and their activity measured as depicted schematically in FIG. 45.
A library of the computationally generated LgLux variants were expressed in E. coli and tested in lysates. 20 uM of SmLux and 50 uM of substrate 1c was used for the screening.
LgLux_4039 sequence is as set forth in SEQ ID NO:2773. MBIO-5103 through MBIO-5124, MBIO-5261 through MBIO-5295, MBIO-5101, and MBIO-5102 (SEQ ID NO:2815-SEQ ID NO:2873, respectively) are computationally generated LgLux. The sequences and activity of these LgLux are shown below in Table 21.
MBIO-5358 and MBIO-5360 through MBIO-5381 (SEQ ID NO:2774-SEQ ID NO:2796, respectively) are computationally generated LgLux.

Molecule | Fold change upon SmLux peptide addition
B1 | 6.75
B2 | 1.09
B3 | 0.92
B4 | 0.87
B5 | 1
B6 | 1.38
B7 | 3.07
B8 | 1.05
B9 | 0.97
B10 | 1
B11 | 2.2
B12 | 1.09
B13 | 1.92
B14 | 3.78
B15 | 1.02
B16 | 1.28
B17 | 0.99
B18 | 1.15
B19 | 0.98
B20 | 0.93
B21 | 1.07
B22 | 1.04
B23 | 1.05
B24 | 1.01
B25 | 0.98
B26 | 1.29
B27 | 1.11
B28 | 1.46
B29 | 1.11

Same assay, conditions: 50 uM substrate 1c, before SmLux peptide addition

Molecule | Baseline Signal (Normalized by expression)
B1 | 168.6
B2 | 148.4
B3 | 167.4
B4 | 229.6
B5 | 167.4
B6 | 271.8
B7 | 165
B8 | 152
B9 | 167.6
B10 | 169.8
B11 | 2169.2
B12 | 145.6
B13 | 173.8
B14 | 166.2
B15 | 170.2
B16 | 186.4
B17 | 167.8
B18 | 180.6
B19 | 169
B20 | 174.4
B21 | 187.6
B22 | 146.2
B23 | 154.8
B24 | 166.2
B25 | 155.6
B26 | 126.6
B27 | 162.2
B28 | 175.2
B29 | 162.6
